Assays:
[1] = molecular target: T1, HA-tagged SQSTM1 (Homo sapiens (Human)., UniProt Q13501); test: proximity ligation; pooled screen (isPLA-seq): Flag-tagged sdAb library co-transfected with HA-tagged SQSTM1 into HEK293T cells, fixed after 48 h, isPLA with anti-HA and anti-Flag antibodies, positive cells sorted by FACS, three rounds, CDR3 sequenced; settings: partners not purified
T1 construct: autophagy receptor SQSTM1, full length; the printed limits 1-440 fit the human protein; also called HA-tagged bait; full length; source: HEK293T, transfected, in fixed cells (screen)

[2] = molecular target: T2, Sqstm1 (endogenous, LLC1 cells) (Mus musculus (Mouse)., UniProt Q64337); test: far-Western, overlay or dot blot; settings: one partner purified
T2 construct: mouse Sqstm1, endogenous in Lewis lung carcinoma (LLC1) cells; also called denatured Sqstm1; source: endogenous, LLC1 cells (lysate for Western blot; fixed cells for staining)

[3] = molecular target: T3, HA-tagged SQSTM1 C-terminal region (221–440 aa) (Homo sapiens (Human)., UniProt Q13501); test: proximity ligation; single sdAb DNA transfected along with HA-tagged SQSTM1 or its truncations; isPLA with anti-HA and anti-Flag antibodies 48 h after transfection; settings: partners not purified
T3 construct: also called C-terminal SQSTM1; source: transfected, in cells (isPLA, co-IP)

[4] = molecular target: T4, HA-tagged SQSTM1 N-terminal region (1–220 aa) (Homo sapiens (Human)., UniProt Q13501); test: as above; settings: partners not purified
T4 construct: SQSTM1, residues 1-220; also called N-terminal region of SQSTM1 (1–220 aa); source: transfected, in cells (isPLA)

[5] = molecular target: GST-SQSTM1, 221–440 aa (Homo sapiens (Human)., UniProt Q13501); test: ITC; settings: both partners purified

B1: anti-SQSTM1 sdAb #9 (Flag-tagged, sdAb library) (VHH)
VHH: QVQLVESGGGSVQAGGSLRLSCTASGGSEYSYSTFSLGWFRQAPGQEREAVAAIASMGGLTYYADSVKGRFTISRDNAKNTVTLQMNNLKPEDTAIYYCAADRGCHSTLGSRISFFKGCIIGWGQGTQVTVSS
notes: 21-aa CDR3 in place of the CDR3 of cAbBCII10; source: HEK293T, transfected (sdAb library in pcDNA3.1), in fixed cells; not shown: 3x Flag, C-terminal, kept
- binding result [1]: binds

B2: purified anti-SQSTM1 sdAb clone #2 (VHH)
VHH: QVQLVESGGGSVQAGGSLRLSCTASGGSEYSYSTFSLGWFRQAPGQEREAVAAIASMGGLTYYADSVKGRFTISRDNAKNTVTLQMNNLKPEDTAIYYCAARAGVCGVVGSFSMYTIGNWVYWGQGTQVTVSS
- binding result [2]: binds

B3: anti-SQSTM1 sdAb #8 (Flag-tagged, sdAb library) (VHH)
VHH: QVQLVESGGGSVQAGGSLRLSCTASGGSEYSYSTFSLGWFRQAPGQEREAVAAIASMGGLTYYADSVKGRFTISRDNAKNTVTLQMNNLKPEDTAIYYCAAARVFMPCTPSHIIGAMCTLACWGQGTQVTVSS
notes: as for B1
- binding result [1]: binds

B4: anti-SQSTM1 sdAb #7 (Flag-tagged, sdAb library) (VHH)
VHH: QVQLVESGGGSVQAGGSLRLSCTASGGSEYSYSTFSLGWFRQAPGQEREAVAAIASMGGLTYYADSVKGRFTISRDNAKNTVTLQMNNLKPEDTAIYYCAAAYIAKRPCCDCREVQWGSRTCWGQGTQVTVSS
notes: as for B1
- binding result [1]: binds

B5: Flag-tagged anti-SQSTM1 sdAb clone #1 (VHH)
VHH: QVQLVESGGGSVQAGGSLRLSCTASGGSEYSYSTFSLGWFRQAPGQEREAVAAIASMGGLTYYADSVKGRFTISRDNAKNTVTLQMNNLKPEDTAIYYCAAEGLVYWTTKKSFGGCLLHDWSWGQGTQVTVSS
notes: 21-aa CDR3 in place of the CDR3 of cAbBCII10; also called anti-SQSTM1 clone #1; sdAb #1; source: HEK293T, transfected (sdAb library in pcDNA3.1), in fixed cells; not shown: 3x Flag, C-terminal, kept
- binding result [3]: binds
- binding result [4]: no binding
- binding result [1]: binds

B6: purified anti-SQSTM1 sdAb clone #1, C-terminal ETA-fused and Flag-tagged (VHH)
VHH: QVQLVESGGGSVQAGGSLRLSCTASGGSEYSYSTFSLGWFRQAPGQEREAVAAIASMGGLTYYADSVKGRFTISRDNAKNTVTLQMNNLKPEDTAIYYCAAEGLVYWTTKKSFGGCLLHDWSWGQGTQVTVSS
notes: also called anti-SQSTM1 sdAb #1; ETA-tagged anti-SQSTM1 sdAb
- Kd [5]: 8.8 ± 1.39 µM
